Test results reported in patent WO2012175740A1 (dated 2012).
Residue numbers refer to the chain shown, from its start.

T1: cyno IgE c(epsilon)2-c(epsilon)3-c(epsilon)4 Fc fragment with C-terminal (His)10 tag (cynomolgus monkey)
T1 construct: Made in HEK-EBNA cells with the murine Ig kappa leader; Biotinylated in the Alphascreen; also called cyno IgE Fc; cyno IgE-Fc
T1 chain: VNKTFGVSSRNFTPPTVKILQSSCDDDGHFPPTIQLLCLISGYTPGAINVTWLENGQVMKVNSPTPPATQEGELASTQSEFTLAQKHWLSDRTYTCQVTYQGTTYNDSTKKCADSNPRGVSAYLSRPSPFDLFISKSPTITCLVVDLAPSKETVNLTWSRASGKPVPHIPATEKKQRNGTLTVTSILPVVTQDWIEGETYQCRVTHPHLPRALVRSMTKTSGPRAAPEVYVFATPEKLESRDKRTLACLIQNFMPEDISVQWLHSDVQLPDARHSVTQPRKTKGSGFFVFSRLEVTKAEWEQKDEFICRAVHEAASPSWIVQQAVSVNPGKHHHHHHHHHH

B1: Nanobody 39D11 (VHH)
VHH: EVQLVESGGGLVQPGGSLRLSCAASGFTFGSYDMSWVRQAPGKGPEWVSSIDTGGDITHYADSVKGRFTISRDNANNMLYLQMNSLKPEDTAVYWCATDEDYALGPNEYDYYGQGTQVTVSS
notes: not shown: C-terminal c-myc tag and His6 tag
B2: Nanobody 42G5 (VHH)
VHH: B1 VHH with Q13R, S31N, S63P, N76A, M78T, W95Y
notes: as for B1
B3: Nanobody 39D8 (VHH)
VHH: B1 VHH with E89G
notes: also called 39D08; not shown: C-terminal c-myc tag and His6 tag
B4: Nanobody 36G5 (VHH)
VHH: EVQLVESGGGLVQPGGSLRLSCVASGFTFGSYDMSWVRQAPGKRPEWVSAINSGGGSTYYADSVKGRFTISRDNAKNTLYLQMNSLKPEDTAVYYCATDEDYALGPNEYDYYGQGTQVTVSS
notes: as for B1
B5: Nanobody 42D7 (VHH)
VHH: B1 VHH with S17P
notes: as for B1
B6: Nanobody 39B2 (VHH)
VHH: EVQLVESGGGLVQPGGSLRLSCAASGFTFGSYDMSWVRQAPGKGPEWVSAINSGGGSTYYADSVKGRFTISRDNAKNTLYLQMNSLKPEDTAVYYCSTDLGPWIEGTMEEYEYEYWGQGTQVTVSS
notes: also called 39B02; not shown: C-terminal c-myc tag and His6 tag

Biological target: T1, cyno IgE …
Test: Alphascreen, competition with HuFc(epsilon)RI(alpha)Fc for cyno IgE Fc

% inhibition at 250 nM Nanobody [%]	IC50 [nM]	Binder
93.5	0.119	B1
91.2	0.96	B2
93.6	0.0742	B3
88.1	0.584	B4
92.7	0.127	B5

The binders below were run against T2, human IgE (Diatec, Oslo, Norway) (human, UniProt P01854-1 1-428) (assay: cell-based or functional assay).
T2 sequence (P01854 other isoform, or with tags, fused parts or gaps): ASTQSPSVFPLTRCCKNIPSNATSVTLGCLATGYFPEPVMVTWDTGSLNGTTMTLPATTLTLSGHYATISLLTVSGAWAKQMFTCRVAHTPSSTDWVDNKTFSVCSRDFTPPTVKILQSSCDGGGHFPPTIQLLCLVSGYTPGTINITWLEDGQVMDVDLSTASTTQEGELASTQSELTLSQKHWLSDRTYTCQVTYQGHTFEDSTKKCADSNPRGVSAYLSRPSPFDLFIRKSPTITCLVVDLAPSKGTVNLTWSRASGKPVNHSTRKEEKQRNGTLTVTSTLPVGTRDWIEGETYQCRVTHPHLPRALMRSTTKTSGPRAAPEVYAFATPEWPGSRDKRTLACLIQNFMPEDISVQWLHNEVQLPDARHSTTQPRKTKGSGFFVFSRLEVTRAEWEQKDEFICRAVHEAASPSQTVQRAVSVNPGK

block of degranulation at 500 nM Nanobody [%]	Binder
> 95	B1
> 95	B3
> 95	B4
25	B6

What follows are binders tested against T2, human IgE (Diatec, Oslo, Norway) (assay: ELISA, competition with coated Fc(epsilon)RII for HuIgE).

fold less potent (against 39D11, 36G5 and Reference Fab) [fold]	Binder
10	B6

These binders were tested against T2, human IgE (Diatec, Oslo, Norway) (assay: ELISA, competition with coated Fc(epsilon)RI for HuIgE).

% inhibition by 500 nM Nanobody [%]	IC50 [nM]	Binder
99.5	0.511	B1
98.1	8.38	B2
99.4	0.55	B3
98.6	2.96	B4
99.6	0.959	B5
69.3	39.4	B6
